Experimental findings from the supplement of paper PMC9170038 are described below.

This data set concerns MS2 coat protein. Put plainly: apparent KD of MS2 coat protein; designed switch direction (-1 OFF switch, 1 ON switch): 1; higher = weaker reporter binding. Put shortly:
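For each design, the apparent KD is the median over clusters of curves fitted to normalised cluster fluorescence. Clusters held RNA switches with common flanks, transcribed on Illumina chips by stalled E. coli RNA polymerase. These were titrated with SNAP-549-labelled MS2 coat protein, doubling from 0.7 or 1.5 nM to 3 µM, without input, with 200 uM small-molecule ligand, or with an oligonucleotide input.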

[1] abbreviates: input ligand: microRNA oligo, concentration not stated.
The mark [2] stands for this setting: Eterna round: R95, input ligand: FMN 200 uM.
Where [3] appears, read: Eterna round: R95, input ligand: microRNA oligo, concentration not stated.
The mark [4] stands for this setting: Eterna round: R95, input ligand: none.

As to “UGAAUAGUUACAGGAUAUGAGUUGUAAAUUGGGUCAGAAGGGUGGGUGUUCUGCGCGGUGUGUUACAUGAGGAUCACCCAUGUU [SameState NG1 #29] (Eterna round: R96, puzzle: Same State NG 1)”, the “apparent KD of MS2 coat protein” value reads like this: (input ligand: FMN 200 uM) 504 nM; under setting [1], 182 nM; (input ligand: none) 377 nM.
For “UGAAUAGUUACAGGAUAUGAGUUGUAAAUUGGGUCAGAAGGGUGGGUGUUUUGCGCGGUGUGUUACAUGAGGAUCACCCAUGUU [SameState NG1 #28] (Eterna round: R96, puzzle: Same State NG 1)” the same measures were 81.8 nM, 75.1 nM and 122 nM.
For “UGAAUGGUGAUAGGAUAUACAUGAGGAAUCCUCGUAGAAGGAUCACGACAUGAGGAUCACCCAUGUAGCCGUCCGUAGACGGCC [salish99_SSNG1_r04_002] (Eterna round: R96, puzzle: Same State NG 1)”, the “apparent KD of MS2 coat protein” value under setting [1] was found to be 89.6 nM.
“UGCAUACAUGAGGAUCACCCAUGUCAACUUAGUCGAGGAUAUGGGCAGCCGUGAGGCGAACCAGAAGGCGAAUUGU [JL-ss1-3.02 ViennaUCT mod] (puzzle: Same State 1)”: the “apparent KD of MS2 coat protein” value turned out to be 18.5 nM under setting [2], 43.8 nM under setting [3] and 45.7 nM under setting [4].
Turning to “UGCCUGAGUCGAGGAUAUUAUGGAUCCUCUAAUACAUGAGGAUCACCCAUGUAAUUAAUUAUACAUGAGAAGGUGACUCAGGCU [SSNG2/12-B1] (Eterna round: R96, puzzle: Same State NG 2)”, under setting [1], the “apparent KD of MS2 coat protein” value amounted to 293 nM.
Regarding “UGCCUGAGUCGAGGAUAUUAUGGAUCCUUUAAUACAUGAGGAUCACCCAUGUAAUUAAUUAUACAUGAGAAGGUGACUCAGGCU [SSNG2/11-B3] (Eterna round: R96, puzzle: Same State NG 2)”, the “apparent KD of MS2 coat protein” value (input ligand: FMN 200 uM) worked out at 24.3 nM, the “apparent KD of MS2 coat protein” value under setting [1] is 194 nM and the “apparent KD of MS2 coat protein” value (input ligand: none) was 253 nM.
With “UGCGGAUAACAGUAGGAUAUGGUCAACGCCACAUGAGGAUCACCCAUGUCGUACCGGCACCUGGACUAGAAGGACUGCCUCCCGC [Esleberi] (puzzle: Same State 2)”, the “apparent KD of MS2 coat protein” value reads like this: under setting [2], 11.6 nM; under setting [3], 26.4 nM; under setting [4], 38 nM.
On to “UGCUACGGAGACAUGAGGAUCACCCAUGUCGCUGCUUAAGGGCAGGAUAUGAAAGGGAAUCCCAAUCAGAAGGGCCGCAGCCAC [Isanxeanor] (Eterna round: R96, puzzle: Same State NG 3)”, for which the “apparent KD of MS2 coat protein” value is 35.3 nM (input ligand: FMN 200 uM), 22.8 nM under setting [1] and 32.6 nM (input ligand: none).
As for “UGCUAUUGUAUAUUGGUGCAAGCUUUUUGACAUGAGGAUCACCCAUGUACUCGUCAUUAGCGCAGUCCGUAGACUGC (puzzle: Sensor for hsa-mir-208a)”, the “apparent KD of MS2 coat protein” value under setting [2] is 74.2 nM, the “apparent KD of MS2 coat protein” value under setting [3] is 15.7 nM and the “apparent KD of MS2 coat protein” value under setting [4] is 79 nM.
Turning to “UGGAUCUAGGCUUGCCUGGGUCCUUGUUGACAUGAGGAUCACCCAUGUGUUUUUUUUUUGCUUUUUGUUUGUCAACA [JL A Humble Attempt mod 1] (puzzle: Sensor for hsa-mir-208a)”, the “apparent KD of MS2 coat protein” value turned out to be 20.8 nM under setting [2], 13.6 nM under setting [3] and 26.1 nM under setting [4].
Take “UGGCUCAGACGAGGAUAUACGUGGUCACAUGAGGAUCACCCAUGUCUCGAGCUUCGGCUCGAGGCGUAGAAGGCGUCUGAGCCA [SSNG2/6-A2] (Eterna round: R96, puzzle: Same State NG 2)”: the “apparent KD of MS2 coat protein” value reads like this: (input ligand: FMN 200 uM) 125 nM; under setting [1], 141 nM; (input ligand: none) 218 nM.
For “UGGCUCAGACGAGGAUAUACGUGGUCACAUGAGGAUCACCCAUGUCUCGAGCUUCGGCUCGAGGCGUAGAAGGUGUCUGAGCCA [SSNG2/6-C2] (Eterna round: R96, puzzle: Same State NG 2)” the same measures were 192 nM, 609 nM and 575 nM.
The corresponding values for “UGGCUCAGACGAGGAUAUAUGUAAUAACAUGAGGAUCACCCAUGUGUCGAGCUUCGGCUCGACACAUAGAAGGCGUCUGAGCCU [SSNG2/2-A3] (Eterna round: R96, puzzle: Same State NG 2)” are 12.7 nM, 20.2 nM and 33.3 nM.
The corresponding values for “UGGCUCAGACGAGGAUAUAUGUCUCGAGCUUCGGCUCGAGACAUGAGGAUCACCCAUGUAAUAACAUAGAAGGUGUCUGAGCCA [SSNG2/1-C2] (Eterna round: R96, puzzle: Same State NG 2)” are 50.6 nM, 240 nM and 263 nM.
Take “UGGCUCAGACGAGGAUAUAUGUCUCGAGCUUCGGCUCGAGACAUGAGGAUCACCCAUGUAAUAACAUAGAAGGUGUCUGAGCCU [SSNG2/1-C3] (Eterna round: R96, puzzle: Same State NG 2)”: the “apparent KD of MS2 coat protein” value (input ligand: FMN 200 uM) amounted to 42.9 nM, the “apparent KD of MS2 coat protein” value under setting [1] is 226 nM and the “apparent KD of MS2 coat protein” value (input ligand: none) came to 388 nM.
The corresponding values for “UGGCUCAGACGAGGAUAUGAUCAUGGCGCUUCGGCGCAUACAUGAGGAUCACCCAUGUAAAGUGAUCAGAAGGUGUCUGAGCCU [SSNG2/7-B3] (Eterna round: R96, puzzle: Same State NG 2)” are 11.5 nM, 12.4 nM and 14.4 nM.
The corresponding values for “UGGCUCAGACUAGGAUAUGAUCAUGGCGCUUCGGCGCAUACAUGAGGAUCACCCAUGUAAAGUGAUCAGAAGGAGUCUGAGCCA [SSNG2/7-C2] (Eterna round: R96, puzzle: Same State NG 2)” are 14.5 nM, 11.9 nM and 15.8 nM.
For “UGGCUCAGAGCAGGAUAUAUGCGAUCACAUGAGGAUCACCCAUGUCUCGAGCUUCGGCUCGAGGCAUAGAAGGGCUCUGAGCCA [SSNG2/4-B2] (Eterna round: R96, puzzle: Same State NG 2)” the same measures were 14.4 nM, 26.8 nM and 36.4 nM.
In the case of “UGGCUCAGAGCAGGAUAUAUGUGAUCACAUGAGGAUCACCCAUGUCUCGAGCUUCGGCUCGAGACAUAGAAGGGCUCUGAGCCU [SSNG2/3-B3] (Eterna round: R96, puzzle: Same State NG 2)”, the “apparent KD of MS2 coat protein” value runs as follows: (input ligand: FMN 200 uM) 110 nM; under setting [1], 52.7 nM; (input ligand: none) 137 nM.
The corresponding values for “UGGCUGAGUCGAGGAUAUUAUGGAUCCUCUAAUACAUGAGGAUCACCCAUGUAAUUAAUUAUACAUGAGAAGGUGACUCAGCCA [SSNG2/12-B2] (Eterna round: R96, puzzle: Same State NG 2)” are 463 nM, 52.3 nM and 342 nM.
The corresponding values for “UGGCUGGUGAUAGGAUAUACAUGAGGAAUCCUCGUAGAAGGAUCACGACAUGAGGAUCACCCAUGUAGCCGUCCGUAGACGGCU [salish99_SSNG1_r04_005] (Eterna round: R96, puzzle: Same State NG 1)” are 493 nM, 198 nM and 551 nM.
